These results are taken from patent US20150218257A1.

Test in all cases: cell-based or functional assay
The target in test [1] is HIV-1 JR-CSF(Y318A) Env on pseudovirus (HIV-1 isolate JR-CSF) (UniProt P20871).
Test [2] addresses HIV-1 JR-CSF Env (gp160), on transfected 293/293T cells or on JR-CSF pseudovirus (HIV-1 isolate JR-CSF) (UniProt P20871).
In test [3] the target is HIV-1 ADA Env (gp160), on transfected 293 cells or on ADA pseudovirus (HIV-1 strain ADA).
The target of test [4] is HIV-1 JR-CSF(I309A) Env on pseudovirus (HIV-1 isolate JR-CSF) (UniProt P20871).
The target in test [5] is HIV-1 JR-FL(E168K) Env on pseudovirus (HIV-1 strain JR-FL).
In test [6] the target is HIV-1 92RW020 Env on pseudovirus (HIV-1 strain 92RW020).

Bounds are passed on as bounds.

B1: 1503_H05 (PG16) antibody, sister clone of 1443_C16 (antibody, V domains shown)
VH: QEKLVESGGGVVQPGGSLRLSCLASGFTFHKYGMHWVRQAPGKGLEWVALISDDGMRKYHSDSMWGRVTISRDNSKNTLYLQFSSLKVEDTAMFFCAREAGGPIWHDDVKYYDFNDGYYNYHYMDVWGKGTIVTVSS
VL: QSALTQPASVSGSPGQTITISCNGTRSDVGGFDSVSWYQQSPGKAPKVMVFDVSHRPSGISNRFSGSKSGNTASLTISGLHIEDEGDYFCSSLTDRSHRIFGGGTKVTVLG
Regarding B1, the IC50 (ug/ml), pseudovirus neutralisation, TZM-bl assay in test [1] was more than 1 µg/mL; in test [2], 0.001 µg/mL; in test [3] it was 0.003 µg/mL; in test [4] it was more than 1 µg/mL; in test [5], 0.002 µg/mL; in test [6], 0.02 µg/mL.

B2: 1456_A12 (PG16) antibody, sister clone of 1443_C16 (antibody, V domains shown)
VH: HEQLVEAGGGVVQPGGSLRLSCLASGFTFHKYGMHWVRQAPGKGLEWVALISDDGMRKYHSDSMWGRVTISRDNSKNTLYLQFSSLRVEDTAMFFCAREAGGPIWHDDVKYYDFNDGYYNYHYMDVWGKGTKVTVSS
VL: QSALTQPASVSGSPGQTITISCNGTSRDVGGFDSVSWYQQSPGKAPKVMVFDVSHRPSGMSNRFSGSKSGNTASLTISGLHIEDEGDYFCSSLTDRSHRIFGGGTKLTVLG
Consider B2, for which the IC50 (ug/ml), pseudovirus neutralisation, TZM-bl assay was more than 1 µg/mL in test [1]; 0.001 µg/mL in test [2]; 0.005 µg/mL in test [3]; more than 1 µg/mL in test [4]; 0.003 µg/mL in test [5]; 0.05 µg/mL in test [6].

B3: 1489_I13 (PG16) antibody, sister clone of 1443_C16 (antibody, V domains shown)
VH: QEQLLESGGGVVQPGGSLRLSCLASGFTFHKYGMHWVRQAPGKGLEWVALISDDGMRKYHSNSMWGRVTISRDNSKNTLYLQFSSLKVEDTAMFFCAREAGGPIWHDDVKYYDFNDGYYNYHYMDVWGKGTTVTVSS
VL: QSALTQPASVSGSPGQTITISCNGTSSDVGGFDSVSWYQQSPGKAPKVMVFDVSHRPSGISNRFSGSKSGNTASLTISGLHIEDEGDYFCSSLTDRSHRIFGGGTKVTVLG
On to B3, for which the IC50 (ug/ml), pseudovirus neutralisation, TZM-bl assay is more than 1 µg/mL in test [1]; 0.002 µg/mL in test [2]; 0.008 µg/mL in test [3]; more than 1 µg/mL in test [4]; 0.005 µg/mL in test [5]; 0.03 µg/mL in test [6].

B4: 1469_M23 (PG16) antibody, sister clone of 1443_C16 (antibody, V domains shown)
VH: QEKLVESGGGVVQPGGSLRLSCLASGFTFHKYGMHWVRQAPGKGLEWVALISDDGMRKYHSDSMWGRVTISRDNSKNTLYLQFSSLKVEDTAMFFCAREAGGPIWHDDVKYYDFNDGYYNYHYMDVWGKGTTVTVSS
VL: QSALTQPASVSGSPGQTITISCNGTRSDVGGFDSVSWYQQSPGRAPKVMVFDVSHRPSGISNRFSGSKSGNTASLTISGLHIEDEGDYFCSSLTDRSHRIFGGGTKLTVLG
As for B4, the IC50 (ug/ml), pseudovirus neutralisation, TZM-bl assay in test [1] was more than 1 µg/mL; in test [2], 0.002 µg/mL; in test [3], 0.005 µg/mL; in test [4] it was more than 1 µg/mL; in test [5], 0.005 µg/mL; in test [6], 0.05 µg/mL.
